For data set [1], the target named is T1, Lys(Dnp)-ATNATAAPRIVGG-Lys(Abz).
T1 chain: KATNATAAPRIVGGK

Data set [2] deals with T2, Lys(Dnp)-ATNATAKPRIVGG-Lys(Abz).
T2 chain: KATNATAKPRIVGGK

The target of data set [3] is T3, Lys(Dnp)-ATNATATPRIVGG-Lys(Abz).
T3 chain: KATNATATPRIVGGK

For data set [4], the target named is T4, Lys(Dnp)-ATNATFHPRIVGG-Lys(Abz).
T4 chain: KATNATFHPRIVGGK

The target in data set [5] is T5, Lys(Dnp)-ATNATFTPRIVGG-Lys(Abz).
T5 chain: KATNATFTPRIVGGK

Data set [6] concerns the target T6, Lys(Dnp)-ATNATIFPRIVGG-Lys(Abz).
T6 chain: KATNATIFPRIVGGK

For data set [7], the target named is T7, Lys(Dnp)-ATNATIQPRIVGG-Lys(Abz).
T7 chain: KATNATIQPRIVGGK

In data set [8] the target is T8, Lys(Dnp)-ATNATLHPRIVGG-Lys(Abz).
T8 chain: KATNATLHPRIVGGK

The target in data set [9] is T9, Lys(Dnp)-ATNATLRPRIVGG-Lys(Abz).
T9 chain: KATNATLRPRIVGGK

Data set [10] concerns the target T10, Lys(Dnp)-ATNATLWPRIVGG-Lys(Abz).
T10 chain: KATNATLWPRIVGGK

Data set [11] has as its target T11, Lys(Dnp)-ATNATMQPRIVGG-Lys(Abz).
T11 chain: KATNATMQPRIVGGK

For data set [12], the target named is T12, Lys(Dnp)-ATNATVFPRIVGG-Lys(Abz).
T12 chain: KATNATVFPRIVGGK

Data set [13] concerns the target T13, Lys(Dnp)-ATNATVVPRIVGG-Lys(Abz).
T13 chain: KATNATVVPRIVGGK

Data set [14] addresses T14, Lys(Dnp)-ATNATVYPRIVGG-Lys(Abz).
T14 chain: KATNATVYPRIVGGK

In data set [15] the target is T15, Lys(Dnp)-ATNATYWPRIVGG-Lys(Abz).
T15 chain: KATNATYWPRIVGGK

Data set [16] addresses T16, Lys(Dnp)-ATNATAWPRIVGG-Lys(Abz).
T16 chain: KATNATAWPRIVGGK

Data set [17] addresses T17, Lys(Dnp)-ATNATDLPRIVGG-Lys(Abz).
T17 chain: KATNATDLPRIVGGK

For data set [18], the target named is T18, Lys(Dnp)-ATNATDMPRIVGG-Lys(Abz).
T18 chain: KATNATDMPRIVGGK

The target in data set [19] is T19, Lys(Dnp)-ATNATDQPRIVGG-Lys(Abz).
T19 chain: KATNATDQPRIVGGK

For data set [20], the target named is T20, Lys(Dnp)-ATNATEGPRIVGG-Lys(Abz).
T20 chain: KATNATEGPRIVGGK

Data set [21] addresses T21, Lys(Dnp)-ATNATESPRIVGG-Lys(Abz).
T21 chain: KATNATESPRIVGGK

Data set [22] addresses T22, Lys(Dnp)-ATNATFPPRIVGG-Lys(Abz).
T22 chain: KATNATFPPRIVGGK

Data set [23] concerns the target T23, Lys(Dnp)-ATNATFSPRIVGG-Lys(Abz).
T23 chain: KATNATFSPRIVGGK

Data set [24] concerns the target T24, Lys(Dnp)-ATNATGNPRIVGG-Lys(Abz).
T24 chain: KATNATGNPRIVGGK

Data set [25] has as its target T25, Lys(Dnp)-ATNATHIPRIVGG-Lys(Abz).
T25 chain: KATNATHIPRIVGGK

Data set [26] deals with T26, Lys(Dnp)-ATNATIAPRIVGG-Lys(Abz).
T26 chain: KATNATIAPRIVGGK

For data set [27], the target named is T27, Lys(Dnp)-ATNATKKPRIVGG-Lys(Abz).
T27 chain: KATNATKKPRIVGGK

Data set [28] concerns the target T28, Lys(Dnp)-ATNATKVPRIVGG-Lys(Abz).
T28 chain: KATNATKVPRIVGGK

Data set [29] concerns the target T29, Lys(Dnp)-ATNATLDPRIVGG-Lys(Abz).
T29 chain: KATNATLDPRIVGGK

Data set [30] has as its target T30, Lys(Dnp)-ATNATLEPRIVGG-Lys(Abz).
T30 chain: KATNATLEPRIVGGK

The target of data set [31] is T31, Lys(Dnp)-ATNATLLPRIVGG-Lys(Abz).
T31 chain: KATNATLLPRIVGGK

Data set [32] addresses T32, Lys(Dnp)-ATNATNNPRIVGG-Lys(Abz).
T32 chain: KATNATNNPRIVGGK

Data set [33] deals with T33, Lys(Dnp)-ATNATNRPRIVGG-Lys(Abz).
T33 chain: KATNATNRPRIVGGK

For data set [34], the target named is T34, Lys(Dnp)-ATNATNWPRIVGG-Lys(Abz).
T34 chain: KATNATNWPRIVGGK

Data set [35] deals with T35, Lys(Dnp)-ATNATRLPRIVGG-Lys(Abz).
T35 chain: KATNATRLPRIVGGK

Data set [36] concerns the target T36, Lys(Dnp)-ATNATRYPRIVGG-Lys(Abz).
T36 chain: KATNATRYPRIVGGK

For data set [37], the target named is T37, Lys(Dnp)-ATNATSYPRIVGG-Lys(Abz).
T37 chain: KATNATSYPRIVGGK

Data set [38] addresses T38, Lys(Dnp)-ATNATVEPRIVGG-Lys(Abz).
T38 chain: KATNATVEPRIVGGK

The target in data set [39] is T39, Lys(Dnp)-ATNATVGPRIVGG-Lys(Abz).
T39 chain: KATNATVGPRIVGGK

The target in data set [40] is T40, Lys(Dnp)-ATNATWFPRIVGG-Lys(Abz).
T40 chain: KATNATWFPRIVGGK

The target in data set [41] is T41, Lys(Dnp)-ATNATYHPRIVGG-Lys(Abz).
T41 chain: KATNATYHPRIVGGK

B1: Human plasma purified Factor Xa (protein)
chain 1: ANSFLEEMKKGHLERECMEETCSYEEAREVFEDSDKTNEFWNKYKDGDQCETSPCQNQGKCKDGLGEYTCTCLEGFEGKNCELFTRKLCSLDNGDCDQFCHEEQNSVVCSCARGYTLADNGKACIPTGPYPCGKQTLER
chain 2: IVGGQECKDGECPWQALLINEENEGFCGGTILSEFYILTAAHCLYQAKRFKVRVGDRNTEQEEGGEAVHEVEVVIKHNRFTKETYDFDIAVLRLKTPITFRMNVAPACLPERDWAESTLMTQKTGIVSGFGRTHEKGRQSTRLKMLEVPYVDRNSCKLSSSFIITQNMFCAGYDTKQEDACQGDSGGPHVTRFKDTYFVTGIVSWGEGCARKGKYGIYTKVTAFLKWIDRSMKTRGLPKAKSHAPEVITSSPLK
Take B1: the FXa kcat/KM in data set [1] came to 45 M⁻¹ s⁻¹; in data set [2], 30 M⁻¹ s⁻¹; in data set [3], 330 M⁻¹ s⁻¹; in data set [4], 150 M⁻¹ s⁻¹; in data set [5] it was 49 M⁻¹ s⁻¹; in [6] it was 130 M⁻¹ s⁻¹. In addition, the FXa kcat/KM is 1700 M⁻¹ s⁻¹ in data set [7]; 540 M⁻¹ s⁻¹ in [8]; 610 M⁻¹ s⁻¹ in [9]; 1000 M⁻¹ s⁻¹ in [10]; 950 M⁻¹ s⁻¹ in data set [11]; 54 M⁻¹ s⁻¹ in data set [12]. For the same protein, the results for the FXa kcat/KM in data set [13], in [14] and in [15] were 54 M⁻¹ s⁻¹, 61 M⁻¹ s⁻¹ and 54 M⁻¹ s⁻¹, respectively.

B2: Human plasma purified Factor Xa (Molecular Innovations, Inc) (protein)
chain 1: ANSFLEEMKKGHLERECMEETCSYEEAREVFEDSDKTNEFWNKYKDGDQCETSPCQNQGKCKDGLGEYTCTCLEGFEGKNCELFTRKLCSLDNGDCDQFCHEEQNSVVCSCARGYTLADNGKACIPTGPYPCGKQTLER
chain 2: IVGGQECKDGECPWQALLINEENEGFCGGTILSEFYILTAAHCLYQAKRFKVRVGDRNTEQEEGGEAVHEVEVVIKHNRFTKETYDFDIAVLRLKTPITFRMNVAPACLPERDWAESTLMTQKTGIVSGFGRTHEKGRQSTRLKMLEVPYVDRNSCKLSSSFIITQNMFCAGYDTKQEDACQGDSGGPHVTRFKDTYFVTGIVSWGEGCARKGKYGIYTKVTAFLKWIDRSMKTRGLPKAKSHAPEVITSSPLK
B2: the FXa kcat/KM stood at 460 M⁻¹ s⁻¹ in [16]; 27 M⁻¹ s⁻¹ in [17]; 11 M⁻¹ s⁻¹ in [18]; 2.2 M⁻¹ s⁻¹ in data set [19]; 18 M⁻¹ s⁻¹ in data set [20]; 5.3 M⁻¹ s⁻¹ in data set [21]. For the same protein, the FXa kcat/KM came out at 6.2 M⁻¹ s⁻¹ in data set [22]; 190 M⁻¹ s⁻¹ in data set [23]; 52 M⁻¹ s⁻¹ in [24]; 78 M⁻¹ s⁻¹ in data set [25]; 650 M⁻¹ s⁻¹ in data set [26]; 25 M⁻¹ s⁻¹ in data set [27]. In addition, the FXa kcat/KM is 50 M⁻¹ s⁻¹ in [28]; 1000 M⁻¹ s⁻¹ in data set [29]; 690 M⁻¹ s⁻¹ in data set [30]; 590 M⁻¹ s⁻¹ in [31]; 15 M⁻¹ s⁻¹ in data set [32]; 220 M⁻¹ s⁻¹ in data set [33]. The FXa kcat/KM in [34] amounted to 86 M⁻¹ s⁻¹; in data set [35], 1400 M⁻¹ s⁻¹; in data set [36] it was 960 M⁻¹ s⁻¹; in data set [37] it was 13 M⁻¹ s⁻¹; in data set [38] it was 110 M⁻¹ s⁻¹; in data set [39] it was 49 M⁻¹ s⁻¹. Moreover, the FXa kcat/KM in [40] turned out to be 49 M⁻¹ s⁻¹; in data set [41], 43 M⁻¹ s⁻¹.

(Values after patent publication US20160024487.)
